Assay results: patent publication US20210388087A1 (Chugai, published 2021)

Target: T1, CD3 epsilon homodimer protein (UniProt P07766 23-126)
T1 construct: also called CD3 (CD3 epsilon)
Assay: SPR, CD3 epsilon homodimer on chip, one-arm antibody as analyte;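 note: surface plasmon resonance at 25 °C with CD3 epsilon homodimer amine-coupled to a CM4 sensor chip, antibody injected as analyte, HBS-EP+ as running buffer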

T1 sequence (P07766 23-126): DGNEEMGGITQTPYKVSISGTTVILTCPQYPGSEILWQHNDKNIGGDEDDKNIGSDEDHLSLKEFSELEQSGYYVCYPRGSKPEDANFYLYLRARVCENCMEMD

| KD ratio (KD of CE115HA000/KD of altered form) | Binder |
| --- | --- |
| 1.73 | CE115HA000 D101I (antibody, human IgG1, kappa, L234A L235A, N297A, name in Kabat numbering, one-arm antibody) heavy: QVQLVESGGGVVQPGRSLRLSCAASGFTFSNAWMHWVRQAPGKGLEWVAQIKAKSNNYATYYAESVKGRFTISRDDSKNSLYLQMNSLKTEDTAVYYCRYVHYGAYYGVIAWGQGTTVTVSSASTKGPSVFPLAPSSKSTSGGTAALGCLVKDYFPEPVTVSWNSGALTSGVHTFPAVLQSSGLYSLSSVVTVPSSSLGTQTYICNVNHKPSNTKVDKKVEPKSCDKTHTCPPCPAPEAAGGPSVFLFPPKPKDTLMISRTPEVTCVVVDVSHEDPEVKFNWYVDGVEVHNAKTKPREEQYASTYRVVSVLTVLHQDWLNGKEYKCKVSNKALPAPIEKTISKAKGQPREPQVYTLPPSRCELTKNQVSLSCAVKGFYPSDIAVEWESNGQPENNYKTTPPVLDSDGSFFLVSKLTVDKSRWQQGNVFSCSVMHEALHNHYTQKSLSLSPDYKDDDDK EPKSSDKTHTCPPCPAPELLGGPSVFLFPPKPKDTLMISRTPEVTCVVVDVSHEDPEVKFNWYVDGVEVHNAKTKPREEQYNSTYRVVSVLTVLHQDWLNGKEYKCKVSNKALPAPIEKTISKAKGQPREPQVCTLPPSRDELTKNQVSLWCLVKGFYPSDIAVEWESNGQPENNYKTTPPVLDSDGSFFLYSKLTVDKSRWQQGNVFSCSVMHEALHNRYTQKSLSLSP light: DIVMTQSPLSLPVTPGEPASISCRSSQSLVHSNRNTYLHWYQQKPGQAPRLLIYKVSNRFSGVPDRFSGSGSGTDFTLKISRVEAEDVGVYYCGQGTQVPYTFGQGTKLEIKRTVAAPSVFIFPPSDEQLKSGTASVVCLLNNFYPREAKVQWKVDNALQSGNSQESVTEQDSKDSTYSLSSTLTLSKADYEKHKVYACEVTHQGLSSPVTKSFNRGEC |
| 4.37 | CE115HA000 D101K (antibody, human IgG1, kappa, L234A L235A, N297A, name in Kabat numbering, one-arm antibody) heavy: QVQLVESGGGVVQPGRSLRLSCAASGFTFSNAWMHWVRQAPGKGLEWVAQIKAKSNNYATYYAESVKGRFTISRDDSKNSLYLQMNSLKTEDTAVYYCRYVHYGAYYGVKAWGQGTTVTVSSASTKGPSVFPLAPSSKSTSGGTAALGCLVKDYFPEPVTVSWNSGALTSGVHTFPAVLQSSGLYSLSSVVTVPSSSLGTQTYICNVNHKPSNTKVDKKVEPKSCDKTHTCPPCPAPEAAGGPSVFLFPPKPKDTLMISRTPEVTCVVVDVSHEDPEVKFNWYVDGVEVHNAKTKPREEQYASTYRVVSVLTVLHQDWLNGKEYKCKVSNKALPAPIEKTISKAKGQPREPQVYTLPPSRCELTKNQVSLSCAVKGFYPSDIAVEWESNGQPENNYKTTPPVLDSDGSFFLVSKLTVDKSRWQQGNVFSCSVMHEALHNHYTQKSLSLSPDYKDDDDK EPKSSDKTHTCPPCPAPELLGGPSVFLFPPKPKDTLMISRTPEVTCVVVDVSHEDPEVKFNWYVDGVEVHNAKTKPREEQYNSTYRVVSVLTVLHQDWLNGKEYKCKVSNKALPAPIEKTISKAKGQPREPQVCTLPPSRDELTKNQVSLWCLVKGFYPSDIAVEWESNGQPENNYKTTPPVLDSDGSFFLYSKLTVDKSRWQQGNVFSCSVMHEALHNRYTQKSLSLSP light: DIVMTQSPLSLPVTPGEPASISCRSSQSLVHSNRNTYLHWYQQKPGQAPRLLIYKVSNRFSGVPDRFSGSGSGTDFTLKISRVEAEDVGVYYCGQGTQVPYTFGQGTKLEIKRTVAAPSVFIFPPSDEQLKSGTASVVCLLNNFYPREAKVQWKVDNALQSGNSQESVTEQDSKDSTYSLSSTLTLSKADYEKHKVYACEVTHQGLSSPVTKSFNRGEC |
